# B1: 18-nt match checkpoint: λ1 sgRNA (3-stem loop) / TS / NTS (mixed)
# RNA: GACGCAUAAAGAUGAGACGCGUUUUAGAGCUAGAAAUAGCAAGUUAAAAUAAGGCUAGUCCGUUAUCAACUUGAAAAAGUGGCACCGAGUCGGUGCUUUU
# DNA 1: CGTGATTCCAGCGTCTCATCTTTATGCGAGTGTACTCG
# DNA 2: CGAGTACACTATTGCGGGACGCTATTATTGGAATCACG
# B2: 18-nt match catalytic: λ1 sgRNA (3-stem loop) / TS / NTS (mixed)
# RNA: B1 RNA
# DNA 1: CGTGATTCCAGCGTCTCATCTTTATGCGAGTGTACTCGTCTTGC
# DNA 2: GCAAGACGAGTACACTCGCATAAAACGCTATTATTGGAATCACG
# Assays:
# [1] = molecular target: T1, SpCas9 wild type (Streptococcus pyogenes, UniProt Q99ZW2 1-1368); experiment: cryo-EM; 1 mM Mg2+; checkpoint state; SEC binding: 20 mM HEPES-KOH pH 7.5, 200 mM KCl, 2 mM MgCl2, room temperature, 371 pmol dCas9, 400 pmol sgRNA, 250 pmol DNA; crystal complex: 20 mM HEPES-KOH pH 7.5, 250 mM KCl, 1 mM DTT, crystals at 20 C; conditions: protein: recombinant; tags: His6-MBP-TEV tag removed by TEV protease; sgRNA strand 1; TS/NTS duplex with internal mismatched region; 18 nt guide-TS complementarity
# T1 sequence (Q99ZW2 whole entry): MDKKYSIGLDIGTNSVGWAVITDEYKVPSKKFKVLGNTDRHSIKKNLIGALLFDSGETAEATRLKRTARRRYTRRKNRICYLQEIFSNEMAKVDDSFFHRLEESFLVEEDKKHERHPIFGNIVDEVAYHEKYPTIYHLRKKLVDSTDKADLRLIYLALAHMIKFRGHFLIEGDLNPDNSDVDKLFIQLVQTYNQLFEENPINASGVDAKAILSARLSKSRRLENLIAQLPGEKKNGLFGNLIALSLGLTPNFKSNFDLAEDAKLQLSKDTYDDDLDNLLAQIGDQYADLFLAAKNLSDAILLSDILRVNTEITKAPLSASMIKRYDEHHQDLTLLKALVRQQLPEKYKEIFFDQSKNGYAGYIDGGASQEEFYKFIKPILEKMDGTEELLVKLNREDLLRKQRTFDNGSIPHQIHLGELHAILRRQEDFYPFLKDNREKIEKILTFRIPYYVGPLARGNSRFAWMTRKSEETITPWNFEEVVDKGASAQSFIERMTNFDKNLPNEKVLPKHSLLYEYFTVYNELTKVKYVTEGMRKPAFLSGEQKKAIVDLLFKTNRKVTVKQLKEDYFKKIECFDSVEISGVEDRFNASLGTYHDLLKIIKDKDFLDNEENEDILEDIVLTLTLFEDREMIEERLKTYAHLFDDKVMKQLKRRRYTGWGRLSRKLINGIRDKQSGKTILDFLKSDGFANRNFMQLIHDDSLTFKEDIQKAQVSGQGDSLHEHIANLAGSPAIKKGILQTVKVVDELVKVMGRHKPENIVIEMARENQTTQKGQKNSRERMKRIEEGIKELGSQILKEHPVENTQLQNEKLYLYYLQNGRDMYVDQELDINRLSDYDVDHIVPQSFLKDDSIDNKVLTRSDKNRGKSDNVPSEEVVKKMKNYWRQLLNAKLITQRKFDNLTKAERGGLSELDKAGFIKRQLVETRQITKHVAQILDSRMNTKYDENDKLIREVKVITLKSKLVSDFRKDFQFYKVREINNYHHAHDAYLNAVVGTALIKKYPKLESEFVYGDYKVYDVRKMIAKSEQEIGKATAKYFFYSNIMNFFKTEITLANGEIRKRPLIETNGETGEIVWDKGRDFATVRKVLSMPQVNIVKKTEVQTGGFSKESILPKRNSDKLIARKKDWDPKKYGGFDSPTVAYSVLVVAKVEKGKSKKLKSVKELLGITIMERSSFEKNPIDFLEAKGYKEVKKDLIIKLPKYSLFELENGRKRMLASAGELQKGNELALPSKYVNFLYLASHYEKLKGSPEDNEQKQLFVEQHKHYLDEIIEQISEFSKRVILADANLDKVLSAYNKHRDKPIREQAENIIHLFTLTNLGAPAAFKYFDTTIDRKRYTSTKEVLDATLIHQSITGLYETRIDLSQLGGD
# [2] = molecular target: T1, SpCas9 wild type; experiment: cryo-EM; 10 mM Mg2+; catalytically active state, TS and NTS cleaved; SEC binding: 20 mM HEPES-KOH pH 7.5, 200 mM KCl, 2 mM MgCl2, room temperature, 371 pmol dCas9, 400 pmol sgRNA, 250 pmol DNA; crystal complex: 20 mM HEPES-KOH pH 7.5, 250 mM KCl, 1 mM DTT, crystals at 20 C; conditions: protein: recombinant; tags: His6-MBP-TEV tag removed by TEV protease; sgRNA strand 1; TS/NTS duplex with internal mismatched region; 18 nt guide-TS complementarity; both DNA strands cleaved in structure
Binder,binding result [1],binding result [2]
B1,binds,
B2,,binds
